The text below walks through data of patent US20060240053A1 (L OREAL, published 2006).

The data set deals with the molecule itself. The experiment in a line: BS3 chemical crosslinking, then gel filtration and SDS-PAGE (self-association). The method, then: A study of the crosslinking using BS3 (Pierce) is carried out on activated SASPase (SEQ ID NO: 6), obtained by acidification and purification by exclusion chromatography (gel filtration) of the recombinant fusion protein GST-SASPase Δ1-84.
1 μg of BS3 in 60 μl of 50 mM phosphate buffer, pH 7, containing 150 mM NaCl, 0.1% TX100 and 5 mM EDTA is added to the activated SASPase (SEQ ID NO: 6) obtained in example III, placed in ice. A control sample free of BS3 is also prepared. After 90 min, 2 μl of 1 M Tris-HCl, pH 8, are introduced into the reaction media in order to stop the reaction. The products obtained are then analyzed by gel filtration and by SDS-PAGE electrophoresis.

B1: activated SASPase (SEQ ID NO: 6) (enzyme)
chain: ANSMGKGYYLKGKIGKVPVRFLVDSGAQVSVVHPNLWEEVTDGDLDTLQPFENVVKVANGAEMKILGVWDTAVSLGKLKLKAQFLVANASAEEAIIGTDVLQDHNAILDFEHRTCTLKGKKFRLLPVGGSLEDEFDLE
notes: also called 12 kD SASPase
For the protein B1, the binding result is listed as “binds”.
